Patent US20090233850A1

What was measured:
[1] = target: recombinant monomeric HIV-1 YU2 gp120, produced in Drosophila S2 cells (HIV-1 YU2) (UniProt P35961); experiment: SPR, Biacore 3000, about 250 RU YU2 gp120 amine-coupled to CM5 chip, CVN in flow, 2B6R reference cell
[2] = target: recombinant monomeric HIV-1 YU2 gp120, produced in Drosophila S2 cells (HIV-1 YU2) (UniProt P35961); experiment: SPR, Biacore 3000, from the response at 300 nM against the 33 RU expected for 1:1
[3] = target: recombinant monomeric HIV-1 YU2 gp120, produced in Drosophila S2 cells (HIV-1 YU2) (UniProt P35961); experiment: ELISA, 100 ng YU2 gp120 adsorbed on the plate, serial dilutions of CVN, detection with polyclonal anti-CVN, BSA background subtracted
[4] = target: recombinant monomeric HIV-1 YU2 gp120, produced in Drosophila S2 cells (HIV-1 YU2) (UniProt P35961); experiment: competition ELISA on plate-adsorbed YU2 gp120; competitor mAb 2G12 at 50 ug/ml; percent of control without CVN
[5] = target: gp120 on HIV-1 BaL (R5) virus (HIV-1 BaL); experiment: cell-based or functional assay

Substance | SPR response at 300 nM [1] | binding stoichiometry (CVN:gp120) [2] | EC50 (read off the curve) [3] | IC50 (read off the curve) [4] | boost of efficacy (% inhibition of HIV-1 BaL) of the mixture against CVN alone at the two lowest concentrations, 12p1 at 16-31 uM [5] | synergy index of the combination of CVN and 12p1, inhibition of HIV-1 BaL replication in PM-1 cells (gp120 ELISA after 7 days) [5]
cyanovirin-N (CVN), recombinant, periplasmic expression in E. coli, hexa-histidine tagged (from UniProt P81180 1-101) | 95 RU | 3 | 10 nM | 30 nM |  | 
unlinked CVN and 12p1 (non-covalent mixture) (from UniProt P81180 1-101) |  |  |  |  | 2 fold | 0.3 to 0.5
